From article PMC9135708

Target: anti-PfTRAP mAb AKBR-7 (mouse)
Test: BLI; Octet QKe; antibodies in culture supernatants immobilized on anti-Mouse IgG Fc Capture biosensors; antigen serially diluted (1–1000 nM) in 10x Kinetics Buffer (PBS + 0.1% BSA, 0.02% Tween-20, 0.05% sodium azide); fit to the 1:1 binding model

Kd: 0.15 nM
B1: Plasmodium falciparum TRAP ectodomain (PfTRAP) (domain or fragment)
chain: RDVQNNIVDEIKYSEEVCNDQVDLYLLMDCSGSIRRHNWVNHAVPLAMKLIQQLNLNDNAIHLYVNVFSNNAKEIIRLHSDASKNKEKALIIIRSLLSTNLPYGRTNLTDALLQVRKHLNDRINRENANQLVVILTDGIPDSIQDSLKESRKLSDRGVKIAVFGIGQGINVAFNRFLVGCHPSDGKCNLYADSAWENVKNVIGPFMKAVCVEVEKTASCGVWDEWSPCSVTCGKGTRSRKREILHEGCTSEIQEQCEEERCPPKWEPLDVPDEPEDDQPRPRGDNSSVQKPEENIIDNNPQEPSPNPEEGKDENPNGFDLDENPENPPNPDIPEQKPNIPEDSEKEVPSDVPKNPEDDREENFDIPKKPENKHDNQNNLPNDKSDRNIPYSPLPPKVLDNERKQSDPQSQDNNGNRHVPNSEDRETRPHGRNNENRSYNRKYNDTPKHPEREEHEKPDNNKKKGESDNKYK
modifications: site-specific biotinylation using BirA ligase, when required
